T1: chicken leptin (chicken, UniProt O42164 19-163, limits assumed)
T1 construct: also called chLeptin; ChLeptin
T1 sequence (looked up): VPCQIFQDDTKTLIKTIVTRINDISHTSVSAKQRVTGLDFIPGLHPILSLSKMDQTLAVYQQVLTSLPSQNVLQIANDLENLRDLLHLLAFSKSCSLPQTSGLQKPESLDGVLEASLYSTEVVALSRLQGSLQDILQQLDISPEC

T2: long form of human leptin receptor, stably transfected in BAF/3 cells (cell homogenate) (human, UniProt P48357 22-1165)
T2 construct: whole, on cells; also called WT in BAF/3 cell homogenate; full-size membrane-embedded leptin receptor
T2 sequence (looked up): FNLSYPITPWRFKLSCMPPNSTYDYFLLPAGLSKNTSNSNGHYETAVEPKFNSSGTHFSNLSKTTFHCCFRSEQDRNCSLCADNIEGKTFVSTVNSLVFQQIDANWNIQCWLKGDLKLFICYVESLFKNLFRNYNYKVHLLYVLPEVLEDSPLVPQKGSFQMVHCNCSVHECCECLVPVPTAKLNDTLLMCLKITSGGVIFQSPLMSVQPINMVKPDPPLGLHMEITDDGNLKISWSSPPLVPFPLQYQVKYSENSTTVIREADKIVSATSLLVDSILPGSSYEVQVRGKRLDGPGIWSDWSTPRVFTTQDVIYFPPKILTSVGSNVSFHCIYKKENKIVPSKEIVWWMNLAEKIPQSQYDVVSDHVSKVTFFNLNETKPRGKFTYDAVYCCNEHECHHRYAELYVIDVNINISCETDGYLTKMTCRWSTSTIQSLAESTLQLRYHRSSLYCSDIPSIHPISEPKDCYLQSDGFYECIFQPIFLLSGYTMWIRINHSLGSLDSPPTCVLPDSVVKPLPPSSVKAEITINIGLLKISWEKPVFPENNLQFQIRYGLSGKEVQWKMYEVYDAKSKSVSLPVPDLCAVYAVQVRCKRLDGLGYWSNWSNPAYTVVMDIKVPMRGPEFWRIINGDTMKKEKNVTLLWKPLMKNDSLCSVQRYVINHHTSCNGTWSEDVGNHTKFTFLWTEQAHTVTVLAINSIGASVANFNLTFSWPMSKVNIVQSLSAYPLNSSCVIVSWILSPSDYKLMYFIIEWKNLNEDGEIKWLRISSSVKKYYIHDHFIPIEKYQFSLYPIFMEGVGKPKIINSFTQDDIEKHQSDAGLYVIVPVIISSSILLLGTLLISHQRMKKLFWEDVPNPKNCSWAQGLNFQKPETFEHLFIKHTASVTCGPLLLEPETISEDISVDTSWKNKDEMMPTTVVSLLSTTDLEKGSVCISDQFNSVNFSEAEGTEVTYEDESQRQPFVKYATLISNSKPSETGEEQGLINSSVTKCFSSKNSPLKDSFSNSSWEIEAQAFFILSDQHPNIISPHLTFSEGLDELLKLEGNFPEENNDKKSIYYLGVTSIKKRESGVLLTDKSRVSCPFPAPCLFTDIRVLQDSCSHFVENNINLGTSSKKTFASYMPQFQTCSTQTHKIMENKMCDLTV

B1: recombinant chicken leptin receptor binding domain (chLBD), amino acids 419-624 of the chicken leptin receptor (receptor)
chain: MAVDVNINIKCETDGYLTKMTCRWSANPNALLLGSSLQLRYHRSKIYCSNFPSTPPESEVKECHFQRNHSYECTFQPVFLLSGYTMWIELKHSLGTLESSPTCVVPADVVKPLPPSNIKAEITRNDGLLNVSWTNPVFTNDDLKFQIRYAVNREELTWELYEVLSVPTRSAVIEVQLCVEYIVQIRCRALDGLGYWSNWSRSAYAAVKD
notes: also called CLBD
B2: recombinant human leptin receptor leptin-binding domain (LBD), amino acids 428-635 of the human leptin receptor (receptor)
chain: MAIDVNINISCETDGYLTKMTCRWSTSTIQSLAESTLQLRYHRSSLYCSDIPSIHPISEPKDCYLQSDGFYECIFQPIFLLSGYTMWIRINHSLGSLDSPPTCVLPDSVVKPLPPSSVKAEITINIGLLKISWEKPVFPENNLQFQIRYGLSGKEVQWKMYEVYDAKSKSVSLPVPDLCAVYAVQVRCKRLDGLGYWSNWSNPAYTVVMD
notes: also called hLBD; human LBD
B3: ovine leptin (fraction SP) (ligand, UniProt Q28603 1-146, looked up)
chain: VPIRKVQDDTKTLIKTIVTRINDISHTQSVSSKQRVTGLDFIPGLHPLLSLSKMDQTLAIYQQILASLPSRNVIQISNDLENLRDLLHLLAASKSCPLPQVRALESLESLGVVLEASLYSTEVVALSRLQGSLQDMLRQLDLSPGC

For assay [1], the target named is T3, recombinant human leptin (human, UniProt P41159 22-167).
T3 construct: mature; also called hLEP; hLeptin
T3 sequence (P41159 22-167): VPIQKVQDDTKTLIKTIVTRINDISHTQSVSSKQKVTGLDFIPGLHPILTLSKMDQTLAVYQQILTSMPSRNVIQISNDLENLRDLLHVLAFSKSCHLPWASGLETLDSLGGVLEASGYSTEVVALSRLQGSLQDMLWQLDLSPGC
Briefly: Scatchard plot (bound/free against bound) of the binding of 125I-hLep to chLBD, inset.

The target in assay [2] is B3. Briefly: gel filtration of hormone:chLBD mixtures at various molar ratios, retention times printed over the peaks. (In general: In gel filtration, larger molecules generally elute earlier.)
The target of assay [3] is T3, recombinant human leptin. Briefly: SPR. For orientation: In SPR one partner is held on a chip, and binding of the other changes the refractive index at the surface.
The target in assay [4] is T1, chicken leptin. Briefly: SPR.
Assay [5] deals with T3, recombinant human leptin. Briefly: SPR, hLEP immobilized on CM5, LBD in flow. As for the experimental part: Kinetic Measurements of LBD-hLEP Interactions—All experiments were performed at 25° C. using surface plasmon resonance (SPR) methodology. The kinetics and equilibrium constants for the interaction between hLEP and LBD were determined using the Biacore 3000 system (Uppsala, Sweden). hLEP was immobilized in a flow cell of a research-grade CM5 sensor chip using amine-coupling chemistry (Lofas, S. et al (1990) J. Chem. Soc. Chem. Commun. 21, 1526-1528). The immobilization steps were carried out at a flow rate of 10 μl/min in HBS-EP buffer. The surface was activated for 7 min with a mixture of N-hydroxysuccinimide (0.05 M) and N-ethyl-N′(3-dimethylaminopropyl)-carbodiimide hydrochloride (0.2 M). hLEP was injected at a concentration of 50 μg/ml in 10 mM acetate, pH 3.5, until the desired level (1000 resonance units) was achieved. Ethanolamine (1 M, pH 8.5) was injected for 7 min to block the remaining activated groups. A control surface was prepared by activating the carboxyl groups and then blocking the activated groups by ethanolamine as described. […] Regeneration of the surface after each interaction was performed by using a 10-μl pulse of 10 mM glycine buffer, pH 2. […]
SPR Determination of the Interaction between hLEP and LBD—The interactions of hLEP and LBD were analyzed by comparison with a theoretical model using Chi-square analysis.

Assay [6] addresses T3, recombinant human leptin. Briefly: cell-based or functional assay.
The target in assay [7] is B3. Briefly: cell-based or functional assay.
The target in assay [8] is T3, recombinant human leptin. Briefly: cell-based or functional assay. The source holds these as a separate data set.
Assay [9] concerns the target B3. Briefly: cell-based or functional assay. This is another data set of the same source.
Assay [10] has as its target T1, chicken leptin. Briefly: cell-based or functional assay.
In assay [11] the target is T2, long form of human leptin receptor, …. Briefly: competition of unlabeled leptin with 125I-human leptin for binding to homogenate of BAF/3 cells transfected with the long form of human leptin receptor. Here is the method: (§1) The specific binding (%) in experiments performed with human, ovine, and chicken leptins and their mutants were, respectively, 7.3% in A, and 8.1% in B, and the nonspecific binding was respectively, 5.4 and 14%. All values for specific binding were normalized, and the solid lines and the IC₅₀ values were calculated using the PRIZMA curve-fitting program (Author, A. (1994) GraphPad Prism™, Version 2.0, GraphPad Software Inc., San Diego, Calif.).
(§2) Binding Assays—Radiolabeled human ¹²⁵I-leptin served as a ligand, and other (human, ovine, and chicken) nonlabeled leptins served as competitors. The experiments were conducted using either recombinant LBD or homogenates of BAF/3 cells stably transfected with the long form of hLEP receptor. In the latter case, the cells were cultured in Dulbecco's modified Eagle's medium supplemented with 5% fetal calf serum in the presence of IL-3 to minimize leptin-receptor down-regulation until a concentration of 10⁶ cells/ml was reached. Then the cells were spun and stored at −70° C. […] Then supernatant was carefully aspirated, and the precipitates were counted in a Kontron ?-counter.

The target in assay [12] is B2. Briefly: competition of unlabeled leptin with 125I-human leptin for binding to soluble recombinant LBD, precipitation of the complex and counting. As for the experimental part: as §1, §2

One may read the Kd as the equilibrium constant for the complex coming apart. One may read the koff as a measure of how fast the partners let go of each other. By kon is commonly meant the rate constant with which the complex forms. For B1, the dissociation constant (Kd) came to 3.9 nM in the assay with recombinant human leptin [1], 78.5 nM with recombinant human leptin [3] and 1300 nM in the assay with chicken leptin [4]. In addition, the binding result in [2] is on record as “binds”. Besides, the koff in the assay with recombinant human leptin [3] came to 0.0143 s⁻¹; in the assay with chicken leptin [4] it was 0.076 s⁻¹. Besides, the kon was determined as 183000 M⁻¹ s⁻¹ with recombinant human leptin [3] and 58300 M⁻¹ s⁻¹ with chicken leptin [4].
Consider B2, for which the complex half-life with recombinant human leptin [5] came to 6.24 min. In addition, the “IC50 (read off the curve)” value (with recombinant human leptin [6]; in assay [7]) was approximately 20 nM throughout. Further, the figures for the “molar excess of LBD required to achieve 50% inhibition of leptin-stimulated proliferation of BAF/3 cells with the long form of human leptin receptor” value (with recombinant human leptin [8]; in assay [9]; in the assay with chicken leptin [10]) were 200 molar excess, 200 molar excess and 600 molar excess, respectively.
Take B3: the “IC50 (read off the curve)” value in [11] was approximately 600 pM; in assay [12] it was approximately 8 nM.
